Measurements: the NTF2 design screens of Basanta et al. (2020)

Experiment: protease stability score; higher = more stable; yeast display proteolysis, trypsin and chymotrypsin;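 note: relative to predicted unfolded state with 0 unfolded-like and 1 meaning tenfold more protease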

Row | Sequence | protease stability score
1 | NHLEEVKDLAIELSWKLMHTGNEELSDRNADPNTRLEFNGVEFVGREWFRQFISEMGVKHIRIDDIDMFDGRMRLDGTFNFNGQEIKVTVFTRKVDGRWRIKSLKFD | 1.6
2 | DESQRDAHHASELVELVEKTGDWKMFEKLLDPHVRLQVGDKEFHGRHEAMRWIRETLERLGIDHREVRIEHIEFIGDKMIIHGEIILRFNGVTITHEEEFIVKKINGKWRMHEIRVR | 1.29
3 | DEEHEHLHKWLDMLLYAHKTGDPEVILKNADPHVRSEVDGREVHGMEKFARDLYEMRIHRIHIKDVKTIGNKLDVDGRLDGEFNGKRVDSDVHLHLVVIDGRLHSLHIKHR | 0.558
4 | SEEEQLALEIARRLVRSILTGDEHEIHRLMDPHVRTNWNGQELVGREEWDRFNHEMRIHELRIREFDVEVFNGRVESRFRTETRMTFDGREVNEETKLIVILDKVDGKWHLRHVEFRIH | 0.651
5 | DHEEELAKSMLEIWREVVWTGDEDSLQKLLDPDARYHLVVDGKRVERIGMEHIRKELHRLFREWRIEDMHIHEIRVVDGVAHTRTRLVVNIDGRIVDTETVINVVSFDGRVRSVTVDIR | 1.25
6 | SDLDEEARRWLEKHLKNFFTGDWDKFMNNVDPNVRYIVGDKHKIGMESFSKDEKEHRDQYDHLEFRIHHEDTYGEKAVSDMHVTYHINGREIRRRVHLSFLVINGKIKSVRIEFE | 0.469
7 | DELEEVIQKVAEMWVRLYKTGNEEIIHKLADPDVRAVYNGVENIGMHRHVELLHRLLEEIRIHDIRINRIEVQGEKAHNDTQVHFIVGEKRETRETHIEIVVVNGVIKEVVIRIH | 0.629
8 | DDHHEVARKIFFHHYNITQTGDEESIERLLDPNVRIIIDGKYIHGWEEILRLIRHIRIHRFNVHRVELQGEKLILDGFTDGSFDGKRITTTIDIYILKIDGRWFIQQIELR | 1.46
9 | SEDEEEAERFLRMFFELIRTGDERTIERLLDPHVRIDIDGRDIHGRERAQEHVQHWYRHIRIEDDQIKEFHIQGNKVEHHGRRRGSFNGVTYEVTVHETVLKVDGVWYMKEVHVR | 0.891
10 | DEEHELLEHWLRLFEEAFSTGDWRIMARLIDPNARLEIGEKDHHGREELIKFMLRVDHIDDFRLHEKDRTEIDGRLRMNGNNEVQGTVNGQKRNITIDIHIVVVKVDGRWFVERIRIR | 1.3
11 | DEDRKNEEIAEKIQLRVLKTGDEDELHHLVDPNVKLHIDGREFHGMELSTHLLSRWHEKYKGLKWRLRDSQSQGDFVIIHFHVHVNGKRLRFVVIARKVDGRWVVEEIELE | 1.4
12 | EEEEEDARRASKIFYHNFLTGDEQNLLKLADPHVLLIINGVHFHGWERYKKWEEERRDKFKNVRLELEDMDVEVIGDKIESIIHLRVDIGDKRIHMEVIFIIEKVDGRWKLRSQEVRIE | 1.03
13 | HEEEEEFKHVVKEVKEFSETGDWDVLNELMDPHVRLFVNGRLHHGREQISEFWHKVKNVTLIIRHIRPVGEKLEVDGEMKFDGKNIEARIHAQKIDGRWITREYRII | 1.12
14 | SEDHKASHFNLILLLRAINTGDEDLEKELADPHVRYEFNGVDLVGMEDWVRFLEEIRVHPRDVKIQRHRVVNGRITFDVRLEGEFTYNGRTYRDTRETTAFVLKVNGRWIMHLHRID | 1.48
15 | DDEERDLKRAYELWVHNMLTGNWRMLNYLADPNTKIEFENHKSHGRESLHELLKRLGVDHMHIELEDMHFVGDKIILHTREEHRVGDKEIRTEVHIDARKINGRWRLQSVHFR | 0.97
16 | DDEERIWRELLEIWIKLMETGDEDTTRKNADPHAKHILVIGDFTLVLHGWDLTVKFLKELSERMGINHIHVHRVEAINGQVHIDSRLRVGDKDVHTHIRIKIVDGVLKETNLHIK | 1.62
17 | SEDSEDAKKVVEISIHTVVTGDEHTNTRLFDPHVRIEIGDKEIHGREKFVHIIRHWRMEAHVEVDEVKRQGDKVRVDGHVRIILDINGRKIDIESQVDVNILKVNGRWLIESEHIH | 1.08
18 | SEDEEMVEKAHQIEKESLETGDEKMILDLLDPNVRIRVDGVDFHGWEHAEKLLRELRIERVNLRSFTWQGDFLRLDGELTFDYNGKKIRTKVRIYADKVDGRWFHKSHEVT | 1.1
19 | DERKEYVEILVRILIELFLTGDWEHMLRLADPNMRFRIGDKETHGMEEAYKLMEELKEEIRIHEVRLTHIRVYGDFADTETRVHVEVGDKIVDYDMRLHLVVVNGQLRHITIEIE | 0.731
20 | TEDERDMQEFYERLIHAIHTGDWREIRRQFDPNVLLNFNGKEIHGREQALRLMRELLHRADVIDDTKTKDLKFYNGRVELHIHEQGQINGQHFRSDVMLIVEKVNGRWYMKSYQID | 1.37
21 | DERQEEARKMFEDVYKAVWTGDEEELLRLMDPNVRIDIDGKILHGREALSEEWKRVDHVHHEHHEDMKVIGNKLHVRGHIEVDIDGRNLRYTIDNYLVVVNGRIKEVKEREV | 0.664
22 | DEITETAERLLRLWVHNFETGNWKKMVDLIDPNARLDVNGRHIHGWEEIAKHLTDELREWRIREIRIRDVKFIDGVNHTHIESDIEYDGRRDRTEMRIIIVVVNGRIKSVKFEIL | 1.2
23 | DEERKEFEEVFRQWIHALRTGDEDSELRNLDPNARIVVGDKEVHGREESERYLRETLHRADHMDFELHRLDVQGDKVHIDGTMILVVNGQEIRYRIHFISVKIDGRWLLRSVIIH | 1.86
24 | DEMEESAERMIEIYLRWLETGDEDSLVENIDPNVRVEIGDKRYHGREEVMHFLSSIQQRIKGARFHLKHFEIQGEYVDIHMEQRVGDKTMDRRVIFQKIDGRWLLKRSQVR | 1.5
25 | DEEEEDSEDAVRFIMLALDTGDEKLLTSLADPNMRLDVNGREFHGREDFIHFLEEVRKKLGVDRIRTHVRETHVINGRVHVRGELRWNGRTHESHVHIIKIDGKWVIKSVHIR | 2.11

Row | Sequence | protease stability score
26 | DEETEKDKFLSEVFRHSLMTGDWESELKYADPHARTVVNGRTIHGMRESWEHLKELLERLGAKYIKIRDMDSHIQGDKVLININGELHVGDKTIETRIHLIVRKVNGQWHIEELRFDFK | 0.993
27 | DEEDKDLHRWLEESTHAMLTGDEQHLTELADPNVKFNFDGREIHGREEYVKFMHRWIRHAGFKHIHVETKDVRVQGNKLHVDTHSIHDYNGRRVRTDTRVFVEKINGRWRLHSIEIE | 1.4
28 | HEEEHDLKEVIRLFLELIDTGDEDVLERLADPNMRVIQGDKTIHGREEVRRTMQEDAKRIDHFEFRLRRVRVINGRLEVDGEFIERAEGHEFRSRVNIMLVKVNGRWVLKIIELR | 1.65
29 | NEWKEKFERFTRLLLTALMTGNEELLTKMVDPHVKVDIIINGQHIEHHGMERVIEMLTQLRVDRWRIKHIDIQGDKLHVNIHLDIKYDGRREETRTEIRLIIYDGVVHEIEIHLH | 1.99
30 | DEREELVTRFWKFFVEASRTGDWRKLEDRADPHVRLHIDGVDLHGREEFAEEHRRHLKKFKNVKIHYEIHDMDIQGEKVHVDYRIRLDIGDKRTENIIRMDIVKIDGKWLIQEMHVD | 0.89
31 | SEDEKVVFQILRLWVDLLLTGDEEEMLHLADPNTRVEIGEFDDHGREAMEFMIRRFDVIEDIKIRDIRTIDGKVQIHGEVHSHFNGRRFTIHVEIIARKIDGRWKLTSMHFI | 2.08
32 | SEMEEESHKVVEYATHVFATGDEHLMRKNFDPDVKLDYNGKHFHGWEEFVKLMQTLREKYGVKHVKRVEIEDIRIIGNKVEVDTRVVQNVDGVPFELEITLILIKIDGKWRNHSSRIR | 0.037
33 | DEIKESAEEAQRTWVHNSLTGNEEELSRNADPDVRVIIYVNGREIRLIGREFLEELMHRVKNLTIEVDEIRFQGDKIRFNERWTVNGVPRHVDLVMHKFNGKWHIHSINIHVV | 1.15
34 | EEIIDLMERLAYLWHHWLTTGNEEMLSKFLDPHARIVIGDKIYHGREKIHEELRRHLERFDHIEFRLRHTEVQGNKIHNHGELKLRIGNYTVHYETRFELQIYDGKIHEFQVKID | 1.73
35 | SEEDEVSERLAREYLHIWKTGDEDRLAKLLDPHTRFIYVIGDKELELIGRDKFAEFLRHLWEELGVNHFDVHDFKVYGEKVQLDTTEEYGDKNFRMHIDIVVIDGKVKFIRIKER | 1.33
36 | DEEEELSKIAYHLTEHIWETGDEDLLKELLDPNTQVTQGEWHVHGRESMHRFLRHVRERLGVDQIDVDVKSVRAFNGVVTTHVNLHFNGRTYTMTLFSNKYNGKWTVKSMKIQ | 1.29
37 | DQKKELIKKVHEHLFEDLITGDEKKLLSLADPNMRSDINGREIHGMEETSRILLELNRHWGVDRVEVHEHDMKIQGDKAIIHGTLKFNGVETTVELVILKINGVWLLKEVHFR | 0.76
38 | SDVLESTKSFLRFFVHAMITGNEEELSRNLDPNVRLLFNGVNYHGMEELVRLLIELGIKIHEWHTHDLKFQGEKLYYLGRRDGEVNGRRSEEEVEFIIFKFNGRWFLHEMRIH | 0.627
39 | DELDKLAHIMMEEILRNWVTGDEDRHNELADPTVRMHSIVGDKHLEIHGREIFTEFLKRIKNVTFEIRLTDLKIQGEKAHSHTRLILRFDGQQVERDTEVTIIVINGRVKDVSIIIR | 1.06
40 | HESTEYADYMLKFLSLVESTGNEDLFKRLFDPDVRLVINGVDTHGWESYHEHRKRVDHKEVEHSEIKHVEVQGEKIIVHGILHVRVKIGDKRFSFEIRFHLIVHKFNGKWHITSIEFH | 0.848
41 | DEDEEEVRKFLHLELRSMETGDEHDLRRLADPHVRIHINGVILHGWEFFLETFRKLGFDHLRIEHVEVQGEKVHIKSRFEIGDKSFETEIIIRKVDGRWYVESIIVN | 0.873
42 | SEEKKLYDLAWELLLQSEKTGNEEIFERLADPHVRSHINGVDYIGRERFSELAHEINRELRIEDIHLHDVDLQGDKVNMSGSLTGHVNGKRHEYTMKIHFEKINGRWIIRSVSWE | 1.39
43 | DEDTHNASEALEYLWRVIMTGDEEQVERMADPNVRVVFNGKHLHGREWFLRVLLHIRFDRVRIEHIHTQGEKVRTDSKSDIEFDGRRIEVDIEIYIHKINGRWIVKMFIFR | 2.89
44 | DEDEKYEEHYVEMFLRWLQTGDEDQIERNADPNVRLDVNGRDIIGWENIIEHIRQIKNLRIQIRRVRVVDGRSIVDIRVEVNGKRHEVNLIVIIINGKLKEVKFEFR | 2.71
45 | DEEDEERTWAWEIFVKIIRTGDEQKLHEMADPHVRLHVGDKHEHGREELVKFFIDYILSLGVDHIEVHLKREDRINGRIHIDSKLRIEVGDKEITNNTHVLFLKVDGKWILKQVEIK | -0.11
46 | DEDDRHSERMSEYMIKVWMTGDEDAEKRLFDPHARIDVDGQEFIGREELHKISHEHLRKLGFDHFHVRHVELRLIDGKAHLSLDTEVRVGDFKFETSIYNNFEKVNGKWEIRELQVRIR | 1.2
47 | SELEELSKEALERHNKDLRTGDWEELWRLLDPNVKLIVNGRHVHGREDATKFLLDWVRQVDHIRSIHIEDYKFQGNKLILHVRYQMDVDGKRDSREMTIYASKVDGRWIVESIEFR | 1.64
48 | SEEKEDIDLAMEIFLHALETGDWEELLRQMDPNVRIVIGDKETHGREEFELTLLKLGIDHFHIKDMKLINGRLHLDTRVHFNGVTVQTEIIIVKFNGRWVIEEMDFQ | 2.4
49 | DEEKTIHNHLMELVVRAFLTGDEELWSNLADPDTKEIIDGKTNVGREEVAKFWKDLVHKFKNARWHITIKRVDVIDGQVRQNSHLEIRYGDKHFHLETEDHLYVINGRLKQFEFRVN | 1.18
50 | SEEDELAKRILETLVRLLLTGNEELRHELADPNMRTEVDGVDLWGMHNDVHFWREIRLKELRIRHIEVQGDKSHSITDLDVEIDGKRIRVETKIRVVVVNGKIHRLHVRID | 1.51
